Experiment [1] has as its target human triosephosphate isomerase K13M, catalytically inactive (hTPI^Δcat) (human). The experiment is described as follows: crystal structure; sitting drops, 28-34% PEG2000 MME, 50 mM KBr; space group P212121, a dimer in the asymmetric unit; 1.7 Å.
For experiment [2], the target named is human triosephosphate isomerase M82T (hTPI^M82T) (human). Briefly: SEC; purified TPI diluted to 15 uM in mobile phase, 100 ul injected, elution monitored at 280 nm; peak areas integrated for the relative monomer and dimer populations; dimer to monomers. Background: Size exclusion chromatography separates by hydrodynamic size, large species first.

As to “human triosephosphate isomerase K13M, catalytically inactive (hTPI^Δcat) (enzyme)”, the stoichiometry N in experiment [1] worked out at 2.
For the substance “human triosephosphate isomerase M82T (hTPI^M82T) (enzyme)”, the percent dimer (dimer:monomer ratio of peak areas) in experiment [2] was 5%.

As usually defined, the stoichiometry N is a count of units in the complex or per binding partner.
